For one molecule, % bound results are on record in article PMC4874933.

The target in this assay is fibrils composed of synthetic human λ6 variable domain (rVλ6Wil) (human). As to the kind of experiment: co-sedimentation.

No end group written: not given here.

As for GGGYSKAQKAQAKQAKQAQKAQKAQAKQAKQAQKAQKAQAKQAKQA (also: Tc-99m label coupled directly, site not characterised) [Tc-99m labeled GGGY-p5+14 peptide], the % bound was 58%.
